Measured values: article PMC11662656, “Intrinsically disordered RNA-binding motifs cooperate to catalyze RNA folding and drive phase separation”

What was measured:
MBP-Loc1p [1] = biological target: T1, MBP-Loc1p (Saccharomyces cerevisiae, UniProt P43586 1-204); test: EMSA; 100 nM DNA; affinity similar to ssRNA; EMSA: 20 mM HEPES pH 7.8, 200 mM NaCl, 2 mM MgCl2, 2 mM DTT, 4% glycerol, 25 C, 5 nM RNA, 100 ug/ml tRNA (omitted in competition); NMR: 20 mM Na phosphate pH 7.
MBP-Loc1p [2] = biological target: T1, MBP-Loc1p; test: competition; vs labeled ASH1 E3; 10-500x; EMSA: 20 mM HEPES pH 7.8, 200 mM NaCl, 2 mM MgCl2, 2 mM DTT, 4% glycerol, 25 C, 5 nM RNA, 100 ug/ml tRNA (omitted in competition); NMR: 20 mM Na phosphate pH 7.
MBP-Loc1p [3] = biological target: T2, MBP-Loc1p (Saccharomyces cerevisiae, UniProt P43586 1-204); test: competition; vs labeled TAR-57; 10-500x; EMSA: 20 mM HEPES pH 7.8, 200 mM NaCl, 2 mM MgCl2, 2 mM DTT, 4% glycerol, 25 C, 5 nM RNA, 100 ug/ml tRNA (omitted in competition); NMR: 20 mM Na phosphate pH 7.4, 50 mM NaCl, 278 K; conditions: protein: recombinant; tags: MBP
Loc1p [4] = biological target: Loc1p (Saccharomyces cerevisiae, UniProt P43586 1-204); test: EMSA; nanomolar range; 100 ug/ml yeast tRNA; EMSA: 20 mM HEPES pH 7.8, 200 mM NaCl, 2 mM MgCl2, 2 mM DTT, 4% glycerol, 25 C, 5 nM RNA, 100 ug/ml tRNA (omitted in competition); NMR: 20 mM Na phosphate pH 7.
Loc1p (3-15) = biological target: T3, Loc1p (3-15) (Saccharomyces cerevisiae, UniProt P43586 3-15); test: NMR (1H-15N HSQC titration); range over peptide signals; EMSA: 20 mM HEPES pH 7.8, 200 mM NaCl, 2 mM MgCl2, 2 mM DTT, 4% glycerol, 25 C, 5 nM RNA, 100 ug/ml tRNA (omitted in competition); NMR: 20 mM Na phosphate pH 7.4, 50 mM NaCl, 278 K; conditions: protein: recombinant; tags: GST removed by thrombin (15N,13C sample); hairpin, 11 bp stem, GAAA loop
T3 chain: PKKPSKRQNLRRE

MBP-Loc1p [5] = biological target: T2, MBP-Loc1p; test: competition; vs labeled ASH1 E3; 10-500x; EMSA: 20 mM HEPES pH 7.8, 200 mM NaCl, 2 mM MgCl2, 2 mM DTT, 4% glycerol, 25 C, 5 nM RNA, 100 ug/ml tRNA (omitted in competition); NMR: 20 mM Na phosphate pH 7.4, 50 mM NaCl, 278 K; conditions: protein: recombinant; tags: MBP; hairpin
Loc1p [6] = biological target: Loc1p (Saccharomyces cerevisiae, UniProt P43586 1-204); test: EMSA; nanomolar range; 100 ug/ml yeast tRNA; EMSA: 20 mM HEPES pH 7.8, 200 mM NaCl, 2 mM MgCl2, 2 mM DTT, 4% glycerol, 25 C, 5 nM RNA, 100 ug/ml tRNA (omitted in competition); NMR: 20 mM Na phosphate pH 7.4, 50 mM NaCl, 278 K; conditions: protein: recombinant; hairpin
MBP-Loc1p [7] = biological target: T1, MBP-Loc1p; test: competition; vs labeled TAR-57; 10-500x; EMSA: 20 mM HEPES pH 7.8, 200 mM NaCl, 2 mM MgCl2, 2 mM DTT, 4% glycerol, 25 C, 5 nM RNA, 100 ug/ml tRNA (omitted in competition); NMR: 20 mM Na phosphate pH 7.
Loc1p array peptide A14 = Loc1p array peptide A14 (Saccharomyces cerevisiae, UniProt P43586 40-59); test: peptide array; EMSA: 20 mM HEPES pH 7.8, 200 mM NaCl, 2 mM MgCl2, 2 mM DTT, 4% glycerol, 25 C, 5 nM RNA, 100 ug/ml tRNA (omitted in competition); NMR: 20 mM Na phosphate pH 7.4, 50 mM NaCl, 278 K; conditions: tags: array-immobilized; label: radioactive
Loc1p array peptide A11 = biological target: T4, Loc1p array peptide A11 (Saccharomyces cerevisiae, UniProt P43586 31-50); test: as above; conditions: tags: array-immobilized; label: radioactive
T4 chain: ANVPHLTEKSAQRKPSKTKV

Loc1p array peptide B8 = Loc1p array peptide B8 (Saccharomyces cerevisiae, UniProt P43586 82-101); test: as above; conditions: tags: array-immobilized; label: radioactive
Loc1p array peptide A9 = biological target: T5, Loc1p array peptide A9 (Saccharomyces cerevisiae, UniProt P43586 25-44); test: as above; conditions: tags: array-immobilized; label: radioactive
T5 chain: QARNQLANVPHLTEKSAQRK

Loc1p array peptide A7 = biological target: T6, Loc1p array peptide A7 (Saccharomyces cerevisiae, UniProt P43586 19-38); test: as above; conditions: tags: array-immobilized; label: radioactive
T6 chain: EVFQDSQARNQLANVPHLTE

Loc1p array peptide B7 = Loc1p array peptide B7 (Saccharomyces cerevisiae, UniProt P43586 79-98); test: as above; conditions: tags: array-immobilized; label: radioactive
Loc1p array peptide B19 = biological target: T7, Loc1p array peptide B19 (Saccharomyces cerevisiae, UniProt P43586 115-134); test: as above; conditions: tags: array-immobilized; label: radioactive
T7 chain: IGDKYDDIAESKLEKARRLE

Loc1p array peptide A15 = Loc1p array peptide A15 (Saccharomyces cerevisiae, UniProt P43586 43-62); test: as above; conditions: tags: array-immobilized; label: radioactive
Loc1p array peptide A10 = biological target: T8, Loc1p array peptide A10 (Saccharomyces cerevisiae, UniProt P43586 28-47); test: as above; conditions: tags: array-immobilized; label: radioactive
T8 chain: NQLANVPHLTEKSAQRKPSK

Loc1p array peptide B5 = Loc1p array peptide B5 (Saccharomyces cerevisiae, UniProt P43586 73-92); test: as above; conditions: tags: array-immobilized; label: radioactive
Loc1p array peptide C15 = Loc1p array peptide C15 (Saccharomyces cerevisiae, UniProt P43586 163-182); test: as above; conditions: tags: array-immobilized; label: radioactive
Loc1p array peptide B6 = Loc1p array peptide B6 (Saccharomyces cerevisiae, UniProt P43586 76-95); test: as above; conditions: tags: array-immobilized; label: radioactive

AAAAAAAAAAAAAAAAAAAAA (ssDNA) [Cy3-A(21) ssDNA]
binding result (MBP-Loc1p [1]): binds

B1: poly-A60 (ssRNA)
RNA: AAAAAAAAAAAAAAAAAAAAAAAAAAAAAAAAAAAAAAAAAAAAAAAAAAAAAAAAAAAA
binding result (MBP-Loc1p [2]): binds | binding result (MBP-Loc1p [3]): binds | binding result (Loc1p [4]): binds

UCUCUGGUUAGGAAACUAACUAGGGA (structured_RNA) [dsRNA tetraloop]
Kd (Loc1p (3-15)): ~73.7 µM

B2: HIV TAR-57 (structured_RNA)
RNA: GGUCUCUCUGGUUAGACCAGAUCUGAGCCUGGGAGCUCUCUGGCUAACUAGGGAACC
binding result (MBP-Loc1p [5]): binds | binding result (Loc1p [6]): binds

CGAAGAUGAAAAUGAUCACGAGAGAGAUCCCGAACAAUUUUCAGAAUUUG (ssRNA) [EAR1 LE]
binding result (MBP-Loc1p [7]): binds | binding result (Loc1p [4]): binds

B3: ASH1 E3 (short) (structured_RNA)
RNA: AUGGAUAACUGAAUCUCUUUCAACUAAUAAGAGACAUUAUCACGAAACAAU
binding result (Loc1p array peptide A14): binds | binding result (Loc1p array peptide A11): binds | binding result (Loc1p array peptide B8): binds | binding result (Loc1p array peptide A9): binds | binding result (Loc1p array peptide A7): no binding | binding result (Loc1p array peptide B7): binds | binding result (Loc1p array peptide B19): no binding | binding result (Loc1p array peptide A15): binds | binding result (Loc1p array peptide A10): binds | binding result (Loc1p array peptide B5): binds | binding result (Loc1p array peptide C15): binds | binding result (Loc1p array peptide B6): binds
